These results are taken from paper PMC13500710.

Like-named read-outs stand apart in the source and are kept apart here.

Holding throughout (experiment): EMSA
A general note: In EMSA bound probe runs differently from free probe, usually more slowly.

The target of data set [1] is T1, ORC1 full length (Homo sapiens, UniProt Q13415 1-861).
T1 sequence: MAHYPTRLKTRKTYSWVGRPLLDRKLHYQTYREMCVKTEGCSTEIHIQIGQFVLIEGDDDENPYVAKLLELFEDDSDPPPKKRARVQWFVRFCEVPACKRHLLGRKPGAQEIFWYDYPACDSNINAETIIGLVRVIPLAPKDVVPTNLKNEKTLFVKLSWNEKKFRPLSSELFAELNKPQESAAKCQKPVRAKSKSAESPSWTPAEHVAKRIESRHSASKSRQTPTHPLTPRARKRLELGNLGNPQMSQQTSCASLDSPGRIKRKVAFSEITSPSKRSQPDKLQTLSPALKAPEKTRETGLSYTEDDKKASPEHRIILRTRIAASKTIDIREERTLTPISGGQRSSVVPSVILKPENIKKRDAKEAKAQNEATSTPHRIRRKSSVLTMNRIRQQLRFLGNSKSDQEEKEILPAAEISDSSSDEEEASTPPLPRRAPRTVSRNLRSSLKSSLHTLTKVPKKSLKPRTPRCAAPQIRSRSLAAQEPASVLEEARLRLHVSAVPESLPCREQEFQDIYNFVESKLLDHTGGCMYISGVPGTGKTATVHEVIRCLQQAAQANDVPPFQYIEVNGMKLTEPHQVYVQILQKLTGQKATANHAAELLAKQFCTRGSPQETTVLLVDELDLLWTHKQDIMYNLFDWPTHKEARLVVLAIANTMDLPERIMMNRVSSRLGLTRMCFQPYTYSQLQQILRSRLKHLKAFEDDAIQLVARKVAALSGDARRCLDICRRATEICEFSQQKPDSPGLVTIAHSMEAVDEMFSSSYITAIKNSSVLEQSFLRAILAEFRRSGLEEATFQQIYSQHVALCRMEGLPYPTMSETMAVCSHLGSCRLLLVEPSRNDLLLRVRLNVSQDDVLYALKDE

For data set [2], the target named is T1, ORC1 full length. This is another data set of the same source.
For data set [3], the target named is T1, ORC1 full length. This is another data set of the same source.
A further data set deals with T2, ORC1 WHD (Homo sapiens, UniProt Q13415 783-861).
T2 sequence: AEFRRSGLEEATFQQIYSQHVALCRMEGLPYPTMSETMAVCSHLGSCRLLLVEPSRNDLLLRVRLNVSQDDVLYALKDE

A further data set deals with T3, ORC1 BAH domain (Homo sapiens, UniProt Q13415 1-200).
T3 sequence: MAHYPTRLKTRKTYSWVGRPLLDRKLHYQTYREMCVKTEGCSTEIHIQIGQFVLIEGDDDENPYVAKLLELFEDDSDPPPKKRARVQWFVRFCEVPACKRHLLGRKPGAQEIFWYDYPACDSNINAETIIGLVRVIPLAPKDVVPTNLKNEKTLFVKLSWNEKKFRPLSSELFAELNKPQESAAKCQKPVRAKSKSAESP

A further data set has as its target T4, ORC1 mutant (EYYE) (Homo sapiens, UniProt Q13415 1-861, R297E;S450Y;T593Y;R846E).
T4 sequence: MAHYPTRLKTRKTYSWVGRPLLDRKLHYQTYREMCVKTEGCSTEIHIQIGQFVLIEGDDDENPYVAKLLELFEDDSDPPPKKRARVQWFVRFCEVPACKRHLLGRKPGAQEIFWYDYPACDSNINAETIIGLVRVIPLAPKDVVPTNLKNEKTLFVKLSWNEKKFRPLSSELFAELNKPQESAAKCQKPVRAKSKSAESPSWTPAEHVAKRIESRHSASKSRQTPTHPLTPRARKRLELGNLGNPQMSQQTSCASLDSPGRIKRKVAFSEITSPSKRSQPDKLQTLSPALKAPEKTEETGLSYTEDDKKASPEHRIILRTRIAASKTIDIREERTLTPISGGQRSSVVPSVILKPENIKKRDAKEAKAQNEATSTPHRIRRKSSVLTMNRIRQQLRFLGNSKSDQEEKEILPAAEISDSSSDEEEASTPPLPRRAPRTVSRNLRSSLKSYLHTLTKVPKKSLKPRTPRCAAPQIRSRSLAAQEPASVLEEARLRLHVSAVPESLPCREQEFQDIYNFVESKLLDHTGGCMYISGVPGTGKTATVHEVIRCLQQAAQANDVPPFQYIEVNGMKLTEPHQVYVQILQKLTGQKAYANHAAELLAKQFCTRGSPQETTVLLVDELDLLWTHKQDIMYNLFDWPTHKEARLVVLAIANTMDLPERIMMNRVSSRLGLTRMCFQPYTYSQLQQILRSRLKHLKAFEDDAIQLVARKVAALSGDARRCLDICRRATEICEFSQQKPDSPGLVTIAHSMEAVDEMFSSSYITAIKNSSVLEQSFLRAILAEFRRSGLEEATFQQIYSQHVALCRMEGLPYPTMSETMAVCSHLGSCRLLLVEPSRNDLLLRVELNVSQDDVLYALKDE

For GAUGGGAGGAAACGCUAAAGCCCAAGGUUUCAGAGGUGAU (ssRNA) [MYC3], the binding result with ORC1 full length [1] is “no binding”.

Consider GTACGCGCGTGGCGTGGCGGTGGGCGCGCAGTGCGTTCTC (ssDNA) [dRM9], for which the binding result in the data set with ORC1 full length [2] was “no binding”.

As to GAGCUCCCAAAUCUCUCCAGAUCUGCUAUCUCUCCUUCCU (ssRNA) [MYC2], the binding result in the data set with ORC1 full length [1] was “no binding”.

In the case of CAGCCGCCCACUUUUGACAGGCCUGGGCGGGCUUCGCUUA (ssRNA) [MYC1, 32P], the binding result in the data set with ORC1 full length [2] is recorded as “no binding”.

As to CAGCCGCCCACUUUUGACAGGCCUGGGCGGGCUUCGCUUA (ssRNA) [MYC1, biotinylated], the binding result in the data set with ORC1 full length [3] is “no binding”.

Regarding GAGAACGCACUGCGCGCCCACCGCCACGCCACGCGCGUAC (ssRNA) [RM9, biotinylated], the binding result with ORC1 WHD, in the data set with ORC1 BAH domain and with ORC1 mutant (EYYE) was “no binding” throughout.
